Common to all, as to experiment: phosphate release, molybdate assay, A820
One data set has as its target T1, YqeG (Bacillus subtilis, UniProt P54452).
T1 construct: gene pgpP; full-length ORF, C-terminal His6 (pET28b, NdeI/HindIII), expressed in E. coli BL21(DE3), TALON purified
It counts as biochemical. The conditions noted are these: 10 mM substrate, 12 h, 50 mM Tris-HCl pH 7.8, 10 mM MgCl2, 250 mM KCl, 1 mM NH4Cl, 37 °C.

For the next data set, the target named is T2, AraL (Bacillus subtilis, UniProt P94526).
T2 construct: full-length ORF, C-terminal His6 (pET28b, NdeI/XhoI), expressed in E. coli BL21(DE3), TALON purified
The data set is classed as biochemical. The conditions noted are these: 10 mM substrate, 12 h, 50 mM Tris-HCl pH 7.8, 10 mM MgCl2, 250 mM KCl, 1 mM NH4Cl, 37 °C.

Substrate in data set [1]: Nc1ccn([C@@H]2O[C@H](COP(=O)(O)O)[C@@H](O)[C@H]2O)c(=O)n1
The data set is classed as biochemical, Bacillus subtilis. The conditions noted are these: 50 mM Tris-HCl pH 7.8, 10 mM MgCl2, 250 mM KCl, 1 mM NH4Cl, 37 °C.

Substrate in data set [2]: Nc1nc2c(ncn2[C@@H]2O[C@H](COP(=O)(O)O)[C@@H](O)[C@H]2O)c(=O)[nH]1
The data set is classed as biochemical, Bacillus subtilis. The note with it: 50 mM Tris-HCl pH 7.8, 10 mM MgCl2, 250 mM KCl, 1 mM NH4Cl, 37 °C.

Substrate in data set [3]: O=P(O)(O)OC(CO)CO
The data set is classed as biochemical, Bacillus subtilis. The note with it: 50 mM Tris-HCl pH 7.8, 10 mM MgCl2, 250 mM KCl, 1 mM NH4Cl, 37 °C.

Substrate in data set [4]: O=c1ccn([C@@H]2O[C@H](COP(=O)(O)O)[C@@H](O)[C@H]2O)c(=O)[nH]1
It counts as biochemical, Bacillus subtilis. The conditions noted are these: 50 mM Tris-HCl pH 7.8, 10 mM MgCl2, 250 mM KCl, 1 mM NH4Cl, 37 °C.

Substrate in data set [5]: Nc1ncnc2c1ncn2[C@@H]1O[C@H](COP(=O)(O)O)[C@@H](O)[C@H]1O
The data set is classed as biochemical, Bacillus subtilis. The note with it: 50 mM Tris-HCl pH 7.8, 10 mM MgCl2, 250 mM KCl, 1 mM NH4Cl, 37 °C.

T1 sequence (P54452 whole entry): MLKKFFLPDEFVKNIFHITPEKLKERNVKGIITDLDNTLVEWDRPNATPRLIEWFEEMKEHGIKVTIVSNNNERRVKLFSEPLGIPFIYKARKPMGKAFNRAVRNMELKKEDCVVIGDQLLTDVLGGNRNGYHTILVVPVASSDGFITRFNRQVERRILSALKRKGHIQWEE
T2 sequence (P94526 whole entry): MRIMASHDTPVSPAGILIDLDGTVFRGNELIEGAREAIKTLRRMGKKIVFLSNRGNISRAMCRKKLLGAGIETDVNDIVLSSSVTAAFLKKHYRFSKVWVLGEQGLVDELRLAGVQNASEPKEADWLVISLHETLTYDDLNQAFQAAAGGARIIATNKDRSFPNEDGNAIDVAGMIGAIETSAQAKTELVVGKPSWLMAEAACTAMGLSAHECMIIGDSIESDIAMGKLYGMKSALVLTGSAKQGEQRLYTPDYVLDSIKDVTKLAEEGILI

For the molecule `O=P(O)(O)OC[C@H]1OC(O)[C@H](O)[C@@H](O)[C@@H]1O` (some centres unmarked) [G6P], the “phosphate release, molybdate assay, A820” value on YqeG was “YqeG hydrolyzed GMP and G6P only at the higher concentration”; on AraL it was “AraL activity was enhanced particularly against G6P at the higher concentration”.

Take `Nc1nc2c(ncn2[C@@H]2O[C@H](COP(=O)(O)O)[C@@H](O)[C@H]2O)c(=O)[nH]1` [GMP]: on YqeG, the “phosphate release, molybdate assay, A820” value was “YqeG hydrolyzed GMP and G6P only at the higher concentration”.

B1: YktC (Bacillus subtilis subsp. subtilis str. 168) (protein)
chain: MTNWTEIDEIAKKWIREAGARITQSMHESLTIETKSNPNDLVTNIDKETEKFFIDRIQETFPGHRILGEEGQGDKIHSLEGVVWIIDPIDGTMNFVHQQRNFAISIGIFENGEGKIGLIYDVVHDELYHAFSGRGAYMNETKLAPLKETVIEEAILAINATWVTENRRIDQSVLAPLVKRVRGTRSYGSAALELANVAAGRIDAYITMRLAPWDYAAGCVLLNEVGGTYTTIEGEPFTFLENHSVLAGNPSIHKTIFEEYLHARK
notes: full-length ORF, C-terminal His6 (pET28b, BamHI/HindIII), expressed in E. coli BL21(DE3), TALON purified
For B1, the Km in data set [1] worked out at 1.6 ± 0.017 mM; in data set [2], 1.9 ± 0.026 mM; in data set [3], 0.49 ± 0.035 mM; in data set [4], 2.4 ± 0.052 mM.

B2: YcsE (Bacillus subtilis subsp. subtilis str. 168) (protein)
chain: MSVQREDVDIKLIAIDMDGTLLNDEQLISDENRKAIREAEDKGVYVVISTGRTLMTCRELAESLKLSSFLITANGSEIWDSNFNLVERKLLHTDHIQMMWDLRNKHNTNFWASTVNKVWRGEFPENITDHEWLKFGFDIEDDDIRNEVLEELRKNKELEITNSSPTNIEVNALGINKAAALAKVTEKLGFTMENVMAMGDSLNDIAMIKEAGLGVAMGNAQDIVKETADYITDTNIEDGVAKAIRHWVL
notes: full-length ORF, C-terminal His6 (pET28b, NdeI/XhoI), expressed in E. coli BL21(DE3), TALON purified
In the case of B2, the Michaelis constant (Km) in data set [1] came to 4.7 ± 0.23 mM; in data set [2], 10.3 ± 0.12 mM; in data set [5], 8.6 ± 0.80 mM; in data set [4] it was 8.5 ± 0.69 mM.

Usually Km stands for the substrate concentration at which the rate is half of its maximum.
